Measurements taken from patent US20230039279A1, “INFLAMMATION-RESPONSIVE ANTI-INFLAMMATORY HYDROGELS” (Nanyang Technological University, priority 2019, published 2023).
Entries after “also recorded” stand apart in the source; their conditions may differ. One block for each compound: values may come before it.

Assays:
MMP-9 [1] = target: T1, MMP-9 (Homo sapiens, UniProt P14780); assay: MMP-9 cleavability of hybrid hydrogels (released particles seen under optical microscope); format: biochemical; parameters: purchased Merck; conditions: 3 μg/ml MMP-9 in PBS, 37° C., 20 hours
Experimental: Each hybrid hydrogel of 20 μL volume in a 500 μL Eppendorf tube was incubated at 37° C. with 3 μg/ml of MMP-9 (83 kDa, Merck) in PBS buffer (DPBS/modified, without calcium and magnesium, HyClone™). In a control experiment, another hybrid hydrogel with the same composition was immersed in PBS buffer without MMP-9. After 20 hours of incubation, the medium surrounding the hybrid hydrogel was sampled onto a cover slip and observed under an optical microscope (Olympus CKX53SF, Japan) to inspect for the presence of released particles.
The selected concentration of MMP-9 is within the range of MMP-9 expression in clinical wound fluids and synovial fluids of patients with rheumatoid arthritis and osteoarthritis [Ladwig, G. P. et al. Wound Repair and Regeneration 10(1) 26-37 (2002); Li, Z. et al. Journal of Diabetes and its Complications 27(4) 380-382 (2013)]. In a typical successful cleavage by MMP-9, the photographs of vials B1 and B2 in FIG. 2 show the appearance of a hybrid hydrogel, which had the same composition as that in vial A1, after prolonged exposure to a buffer with and without MMP-9 respectively. […] The optical microscope image C1 verified the presence of ibu-PLGA particles in the resulting liquid mixture of vial B1 confirming the successful digestion of this hybrid hydrogel by MMP-9. In contrast, MMP-9-free PBS buffer added after gelation was observed as a clear liquid phase in vial B2. The optical microscope image C2 also confirmed the absence of any released lbu-PLGA particles in vial B2.
Target sequence in this assay (P14780 107-707 limits assumed): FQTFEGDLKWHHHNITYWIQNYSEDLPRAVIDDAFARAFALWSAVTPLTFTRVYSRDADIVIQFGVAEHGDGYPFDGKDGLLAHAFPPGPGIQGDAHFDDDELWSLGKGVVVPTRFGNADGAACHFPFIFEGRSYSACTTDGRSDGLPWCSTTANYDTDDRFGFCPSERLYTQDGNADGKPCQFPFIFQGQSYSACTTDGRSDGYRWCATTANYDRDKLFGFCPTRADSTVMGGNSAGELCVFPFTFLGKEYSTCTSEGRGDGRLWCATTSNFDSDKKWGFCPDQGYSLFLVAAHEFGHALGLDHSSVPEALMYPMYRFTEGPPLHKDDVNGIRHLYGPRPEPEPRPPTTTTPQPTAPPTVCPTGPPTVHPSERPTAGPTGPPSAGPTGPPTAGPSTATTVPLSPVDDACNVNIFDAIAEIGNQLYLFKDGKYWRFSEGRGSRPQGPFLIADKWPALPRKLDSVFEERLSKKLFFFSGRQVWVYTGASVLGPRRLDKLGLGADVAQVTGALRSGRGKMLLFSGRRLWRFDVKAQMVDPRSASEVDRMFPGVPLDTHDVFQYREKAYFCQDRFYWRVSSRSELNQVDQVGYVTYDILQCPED

MMPs = assay: PMA skin inflammation mouse model, MMP activity by MMPSense fluorescent imaging; format: in vivo; conditions: 24 hours after subcutaneous PMA injection
Experimental: (§1) We established a mouse model of skin inflammation using phorbol 12-myristate 13-acetate (PMA) as a stimulant (FIG. 12A) which could induce the upregulation of MMPs captured by MMPSense probe. At the PMA injection sites 24 hours post PMA injection, we observed a red area whose extent was associated with the increase in PMA amounts injected (FIG. 12B). […] In addition, there was a basal of amount of MMP which generated the lowest fluorescent signal at PMA-free PBS buffer injection site. Thus, as more PMA was subcutaneously injected, the fluorescent intensity rose; and more importantly this increase in signal intensity correlated with the extent of the red area on the dorsal side of mice. Protein expression was also studied as skin tissue at the PMA injection sites were retrieved for MMP-9 quantification using ELISA kit (FIG. 12E). […] Overall, PMA subcutaneous injection with increasing amounts could induce subcutaneous inflammation with increasing levels of severity, resulting in more MMP-9 secretion.

MMP-9 [2] = assay: PMA skin inflammation mouse model, MMP-9 quantification in skin tissue by ELISA; format: in vivo; conditions: skin tissue at injection site
Experimental: as §1

[3] = Tube-inversion gelation screening of peptide crosslinkers with PEG-VS and ibu-PLGA particles; format: physicochemical
Experimental: Peptide-crosslinked hydrogels were prepared by reacting 4-arm poly(ethylene glycol)-vinyl sulfone (PEG-VS) (20 kDa, Sigma Aldrich, St. Louis, Mo., USA) with bis-cysteine peptides (Genscript, Hong Kong) in stoichiometric ratio. Each precursor was dissolved in either triethanolamine (TEOA) buffer (0.3M) or PBS/NaOH buffer (pH=10). Typically, to prepare 117 μL of peptide-crosslinked hydrogels with 4.2% (w/v) PEG content, 5 mg of PEG-VS was dissolved in 100 μL of a buffer solution in a glass vial and mixed with a stoichiometric amount of a peptide crosslinker dissolved in 17 μL of the same buffer solution. Hydrogels with 4.2% (w/v) PEG content were evaluated in the preliminary screening of peptide crosslinkers. Hydrogels with 1.7% (w/v) PEG content were used in all subsequent in vitro and in vivo experiments. To form hybrid hydrogels consisting of PLGA particles (with or without ibuprofen) embedded in peptide-crosslinked hydrogels, the aforementioned precursors were dissolved separately in a buffer solution containing suspended PLGA particles at a concentration of 5% (w/v).
To identify an optimal peptide crosslinker for GEL-iP, we performed qualitative screening of 8 peptide sequences (Table 3 and FIG. 14) by evaluating the influence of substrate and spacer choices on the gelation and cleavability of hybrid hydrogels. In addition, buffers in which gelation occurred was also investigated because their environmental pH might affect the deprotonation of thiols and subsequently influence the crosslinking process. For each combination of substrate, spacer and buffer, the feasibility of gelation was visually inspected via a tube-inversion method. A stoichiometric amount of a peptide crosslinker was added to a glass vial containing a mixture of PEG-VS solution and suspended ibu-PLGA particles. In a parallel experiment, another vial with the same mixture composition, but without the peptide crosslinker of interest, was used as a control. The two vials were inverted at regular intervals until the mixture in one vial stopped flowing despite gravity indicating successful gelation. An example of the successful gelation of a typical hybrid hydrogel was captured in photographs of glass vials A1 and A2 (FIG. 2). […] This solid white appearance resulted from the white ibu-PLGA particles. In the absence of any peptide crosslinker, the precursor mixture in the control vial A2 remained free-flowing, indicating absence of gelation.

MMP-9 [4] = target: T1, MMP-9; assay: Protease specificity of peptide anchor (MMP-9 versus Cathepsin B and HNE); format: biochemical
Description: A) The cumulative liberation of ibuprofen (LIbu) increased corresponding to the increase in the MMP-9 concentrations. Absence of diffusion-driven basal release in the absence of MMP9 protease (bottom line). B) The specificity of GPRSLSGRRCG (SEQ ID NO: 20) sensitivity to MMP-9 compared to Cathepsin B and HNE. Error bars represent standard error of the means of n=4 replicates.
FIG. 9 supports the hypothesis that protease-sensitive drug release can be achieved from an ibuprofen-conjugated PEG hydrogel upon exposure to clinically relevant protease concentration of 1 ug/ml. […] LC-MS analysis confirmed the presence of the liberated ibuprofen bearing fragment (ibu-GPQG, LC peak at elution time of 14.6 min, MS peak at m/z=546.20) in the supernatant collected after 2 days of hydrogel exposure to MMP9 solution (FIG. 9B). In contrast, this peak is absent from the supernatant collected when the hydrogel was exposed to a control buffer without MMP9. Since the concentration of active MMP9 in human wound fluid falls within the range of 0.3-4.8 μg/ml, our data in FIG. 10A support the feasibility of drug release at a clinically relevant protease concentration.
Target sequence in this assay (P14780 94-707): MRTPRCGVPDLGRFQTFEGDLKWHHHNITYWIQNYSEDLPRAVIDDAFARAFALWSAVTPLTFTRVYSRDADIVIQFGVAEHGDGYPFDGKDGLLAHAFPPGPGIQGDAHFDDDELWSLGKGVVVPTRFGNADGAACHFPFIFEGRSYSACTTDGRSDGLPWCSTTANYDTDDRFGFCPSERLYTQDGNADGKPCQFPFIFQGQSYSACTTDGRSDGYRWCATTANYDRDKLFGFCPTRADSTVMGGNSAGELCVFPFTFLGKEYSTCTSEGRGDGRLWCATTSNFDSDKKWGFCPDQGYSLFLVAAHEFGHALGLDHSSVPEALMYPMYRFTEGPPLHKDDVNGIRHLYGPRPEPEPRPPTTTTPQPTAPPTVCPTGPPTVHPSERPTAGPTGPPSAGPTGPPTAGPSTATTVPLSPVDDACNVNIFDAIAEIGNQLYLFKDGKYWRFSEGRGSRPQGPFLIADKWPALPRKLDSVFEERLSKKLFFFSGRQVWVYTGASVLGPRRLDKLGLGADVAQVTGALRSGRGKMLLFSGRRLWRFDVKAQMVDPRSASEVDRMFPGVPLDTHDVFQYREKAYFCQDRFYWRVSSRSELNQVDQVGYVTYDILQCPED

MMP-9 [5] = target: T1, MMP-9; assay: Degradation of plural protease-cleavable hydrogel, MMP-9 alone; format: biochemical
Experimental: (§2) A) Schematic of the mechanism of dual protease-responsive combinational hydrogel system. B) Photographs show the cleavability of H2-M2 combinational hydrogels over 24 hours (n=3). (i) Control, (ii) With HNE protease; (iii) With MMP-9 protease; and (iv) With both HNE and MMP-9 proteases. C) Quantification of the average number of PLGA particles released from combinational hydrogels in the presence of zero, single or dual proteases over 24 hours (n=3). Error bars represent s.e.m of n=3 replicates. p-values were determined by one-way ANOVA with Tukey post-hoc analysis. (***) and (ns) denote p≤0.001 and p≥0.05 (not significant) respectively.
Target sequence in this assay (P14780 94-707): as above

[6] = tested on: RAW 264.7 murine macrophages; assay: WST-1 relative metabolic activity of macrophages treated with hydrogel releasates; format: cell-based; conditions: 0.6 mg/mL freely dissolved drug, equivalent dosage; 72 hours treatment
Experimental: RAW 264.7 murine macrophages were cultured in high glucose DMEM (Gibco Laboratories) supplemented with 10% FBS (Gibco Laboratories), and 1% penicillin/streptomycin (Gibco Laboratories) at 37° C. in 5% CO2 atmosphere. RAW 264.7 macrophages at passages of 20-30 were seeded in 96-well plates (Corning®) at an initial seeding density of 2×10^4 cells/well and incubated at 37° C. for 24 hours. A volume of 100 μL of each hybrid hydrogel (GEL-iP and scrGEL-iP) fabricated with 1.7% (w/v) of PEG and 5% (w/v) of ibuprofen-loaded PLGA microparticles was incubated in 500 μL of phenol red-free DMEM (Gibco Laboratories) culture medium for 2 hours in the presence and absence of 3 μg/ml of MMP-9 (FIG. 4A). […] Afterwards, the releasates were removed from the treated macrophages; and the in vitro metabolic activity of treated cells was evaluated using WST-1 cell proliferation assay (Abcam) as per manufacturer's protocol. […] A volume of 100 μL of this medium was then transferred into a new 96-well plate; and its absorbance at 450 nm and 690 nm was recorded using a microplate reader (SpectraMax M5). To calculate relative metabolic activity, all the absorbance values at 450 nm were subtracted by the values at the reference wavelength of 690 nm and the background absorbance to achieve corrected absorbance values. Afterward, the relative metabolic activity was calculated as follows: […]

HNE = target: T2, HNE (Homo sapiens, UniProt P08246); assay: Degradation of plural protease-cleavable hydrogel, HNE alone; format: biochemical
T2 sequence (P08246 30-267): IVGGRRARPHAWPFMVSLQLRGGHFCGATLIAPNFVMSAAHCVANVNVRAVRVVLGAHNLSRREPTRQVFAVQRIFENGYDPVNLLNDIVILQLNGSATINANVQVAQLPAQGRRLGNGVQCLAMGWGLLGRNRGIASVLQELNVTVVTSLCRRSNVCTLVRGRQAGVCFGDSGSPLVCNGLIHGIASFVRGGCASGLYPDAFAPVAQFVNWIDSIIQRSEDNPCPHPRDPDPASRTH
Experimental: as §2

cleavability of hybrid hydrogel crosslinked with the peptide by MMP-9 (MMP-9 [1]): not cleaved
Compound: GCRD-LGRM↓GLPGK-DRCG (GCRDLGRMGLPGKDRCG; GCRD-LGRMGLPGK-DRCG) [peptide (6), spacer GCRD, same substrate as peptide (2)]

specificity toward MMP-9 compared to cathepsin B and HNE (MMP-9 [4]): good specificity toward MMP-9
Compound: GPRSLSGRRCG (GPRSLSGRRCG)

preferential cleavage of peptide substrate by MMP-9 (MMP-9 [5]): preferentially cleaved
Compound: GRCR-GPRS↓LSG-RCRG [M2]

preferential cleavage of peptide substrate by HNE (HNE): preferentially cleaved
Compound: GRCR-PMAV↓VQSVP-RCRG [H2]

Second part, the compound before the results:

Compound: CCCCCCCCCCCCCC(=O)O[C@@H]1[C@@H](C)[C@@]2(O)[C@@H](C=C(CO)C[C@]3(O)C(=O)C(C)=C[C@@H]23)[C@@H]2C(C)(C)[C@]12OC(C)=O [PMA, phorbol 12-myristate 13-acetate]
MMP activity (fluorescent signal), difference 4 μg versus 0.4 μg of PMA (MMPs): 1.9 fold
amount of MMP-9 secreted, difference 4 μg versus 0 μg PMA (MMP-9 [2]): 10 fold
amount of MMP-9 secreted, difference 4 μg versus 0.4 μg PMA (MMP-9 [2]): 5 fold

Compound: GCRD-GPQG↓IWGQ-DRCG (GCRDGPQGIWGQDRCG; GCRD-GPQGIWGQ-DRCG) [peptide (5), spacer GCRD]
cleavability of hybrid hydrogel crosslinked with the peptide by MMP-9 (MMP-9 [1]): could be digested by MMP-9

Compound: GCRR-GPQG↓IWGQ-RRCG (GCRRGPQGIWGQRRCG; GCRR-GPQGIWGQ-RRCG) [peptide (4), spacer GCRR]
cleavability of hybrid hydrogel crosslinked with the peptide by MMP-9 (MMP-9 [1]): could be digested by MMP-9; also recorded: successful hydrogel cleavage by MMP-9

Compound: GCRR-KGPRSLSGK-RRCG (GCRRKGPRSLSGKRRCG; GCRR-KGPRSLSGK-RRCG) [peptide (1)]
cleavability of hybrid hydrogel crosslinked with the peptide by MMP-9 (MMP-9 [1]): could be digested by MMP-9; also recorded: successful hydrogel cleavage by MMP-9

Compound: GCRD-AVRW↓LLTA-DRCG (GCRDAVRWLLTADRCG; GCRD-AVRWLLTA-DRCG) [peptide (8)]
gelation by crosslinking with PEG-VS ([3]; PBS/NaOH buffer): preventing gelation
gelation by crosslinking with PEG-VS ([3]; TEOA buffer): preventing gelation

Compound: GCRR-AVRW↓LLTA-RRCG (GCRRAVRWLLTARRCG; GCRR-AVRWLLTA-RRCG) [peptide (3)]
gelation by crosslinking with PEG-VS ([3]; PBS/NaOH buffer): could induce gelation
gelation by crosslinking with PEG-VS ([3]; TEOA buffer): not
cleavability of hybrid hydrogel crosslinked with the peptide by MMP-9 (MMP-9 [1]): not cleaved

Compound: GCRD-KGPRS↓LSGK-DRCG (GCRDKGPRSLSGKDRCG; GCRD-KGPRSLSGK-DRCG) [(7)]
cleavability of hybrid hydrogel crosslinked with the peptide by MMP-9 (MMP-9 [1]): could be digested by MMP-9; also recorded: successful hydrogel cleavage by MMP-9

Compound: CC(C)Cc1ccc(C(C)C(=O)O)cc1 (stereo not drawn) [ibuprofen]
relative metabolic activity of macrophages [6]: ~0%

Compound: GCRR-LGRM↓GLPGK-RRCG (GCRRLGRMGLPGKRRCG; GCRR-LGRMGLPGK-RRCG) [peptide (2), spacer GCRR, same substrate as peptide (6)]
cleavability of hybrid hydrogel crosslinked with the peptide by MMP-9 (MMP-9 [1]): not cleaved
